Measured values taken from article doi:10.1101/2022.12.14.520480 (bioRxiv, 2022).

Target: GST-LC3B (UniProt Q9GZQ8 1-120)
Test: pull-down

binding result: binds
B1: MYC-tagged LIMP2 wild type (natural protein)
chain: MGRCCFYTAGTLSLLLLVTSVTLLVARVFQKAVDQSIEKKIVLRNGTEAFDSWEKPPLPVYTQFYFFNVTNPEEILRGETPRVEEVGPYTYRELRNKANIQFGDNGTTISAVSNKAYVFERDQSVGDPKIDLIRTLNIPVLTVIEWSQVHFLREIIEAMLKAYQQKLFVTHTVDELLWGYKDEILSLIHVFRPDISPYFGLFYEKNGTNDGDYVFLTGEDSYLNFTKIVEWNGKTSLDWWITDKCNMINGTDGDSFHPLITKDEVLYVFPSDFCRSVYITFSDYESVQGLPAFRYKVPAEILANTSDNAGFCIPEGNCLGSGVLNVSICKNGAPIIMSFPHFYQADERFVSAIEGMHPNQEDHETFVDINPLTGIILKAAKRFQINIYVKKLDDFVETGDIRTMVFPVMYLNESVHIDKETASRLKSMINTTLIITNIPYIIMALGVFFGLVFTWLACKGQGSMDEGTADERAPLIRT
